# According to patent publication US9605283B2, “Microorganism modified for the production of 1,3-propanediol” (INSTITUT NATIONAL DES SCIENCES APPLIQUÉES, priority 2012, dated 2017):
# Substitutions are numbered along the chain they refer to. In names and notes the source's numbering stands.
# B1: Escherichia coli (L)-lactate dehydrogenase Ec-LldD variant V108C, SEQ ID No. 174 (Escherichia coli K-12; V108C) (protein)
# chain: MIISAASDYRAAAQRILPPFLFHYMDGGAYSEYTLRRNVEDLSEVALRQRILKNMSDLSLETTLFNEKLSMPVALAPVGLCGMYARRGEVQAAKAADAHGIPFTLSTCSVCPIEEVAPAIKRPMWFQLYVLRDRGFMRNALERAKAAGCSTLVFTVDMPTPGARYRDAHSGMSGPNAAMRRYLQAVTHPQWAWDVGLNGRPHDLGNISAYLGKPTGLEDYIGWLGNNFDPSISWKDLEWIRDFWDGPMVIKGILDPEDARDAVRFGADGIVVSNHGGRQLDGVLSSARALPAIADAVKGDIAILADSGIRNGLDVVRMIALGADTVLLGRAFLYALATAGQAGVANLLNLIEKEMKVAMTLTGAKSISEITQDSLVQGLGKELPAALAPMAKGNAA
# notes: DCIP assay
# B2: Lactococcus lactis branched-chain alpha-ketoacid decarboxylase Ll-KdcA, wild type, SEQ ID No. 130 (Lactococcus lactis) (protein)
# chain: MYTVGDYLLDRLHELGIEEIFGVPGDYNLQFLDQIISREDMKWIGNANELNASYMADGYARTKKAAAFLTTFGVGELSAINGLAGSYAENLPVVEIVGSPTSKVQNDGKFVHHTLADGDFKHFMKMHEPVTAARTLLTAENATYEIDRVLSQLLKERKPVYINLPVDVAAAKAEKPALSLEKESSTTNTTEQVILSKIEESLKNAQKPVVIAGHEVISFGLEKTVTQFVSETKLPITTLNFGKSAVDESLPSFLGIYNGKLSEISLKNFVESADFILMLGVKLTDSSTGAFTHHLDENKMISLNIDEGIIFNKVVEDFDFRAVVSSLSELKGIEYEGQYIDKQYEEFIPSSAPLSQDRLWQAVESLTQSNETIVAEQGTSFFGASTIFLKSNSRFIGQPLWGSIGYTFPAALGSQIADKESRHLLFIGDGSLQLTVQELGLSIREKLNPICFIINNDGYTVEREIHGPTQSYNDIPMWNYSKLPETFGATEDRVVSKIVRTENEFVSVMKEAQADVNRMYWIELVLEKEDAPKLLKKMGKLFAEQNK
# B3: Lactococcus lactis branched chain 2-oxoacid decarboxylase Ll-KdcA variant V461I, SEQ ID No. 198 (Lactococcus lactis; V461I) (protein)
# chain: B2 chain with V461I
# B4: Lactococcus lactis branched chain 2-oxoacid decarboxylase Ll-KdcA variant G402S, SEQ ID No. 196 (Lactococcus lactis; G402S) (protein)
# chain: B2 chain with G402S
# B5: Bacillus subtilis malate dehydrogenase Bs-Mdh variant R87C, SEQ ID No. 154 (Bacillus subtilis subsp. subtilis str. 168; R87C) (protein)
# chain: MGNTRKKVSVIGAGFTGATTAFLIAQKELADVVLVDIPQLENPTKGKALDMLEASPVQGFDAKITGTSNYEDTAGSDIVVITAGIACKPGMSRDDLVSTNEKIMRSVTQEIVKYSPDSIIVVLTNPVDAMTYAVYKESGFPKERVIGQSGVLDTARFRTFVAEELNLSVKDVTGFVLGGHGDDMVPLVRYSYAGGIPLETLIPKERIDAIVERTRKGGGEIVNLLGNGSAYYAPAASLTEMVEAILKDQRRVLPTIAYLEGEYGYEGIYLGVPTIVGGNGLEQIIELELTDYERAQLNKSVESVKNVMKVLS
# B6: Zymomonas mobilis pyruvate decarboxylase Zm-Pdc, wild type, SEQ ID No. 128 (Zymomonas mobilis subsp. mobilis ZM4 = ATCC 31821) (protein)
# chain: MSYTVGTYLAERLVQIGLKHHFAVAGDYNLVLLDNLLLNKNMEQVYCCNELNCGFSAEGYARAKGAAAAVVTYSVGALSAFDAIGGAYAENLPVILISGAPNNNDHAAGHVLHHALGKTDYHYQLEMAKNITAAAEAIYTPEEAPAKIDHVIKTALREKKPVYLEIACNIASMPCAAPGPASALFNDEASDEASLNAAVEETLKFIANRDKVAVLVGSKLRAAGAEEAAVKFADALGGAVATMAAAKSFFPEENPHYIGTSWGEVSYPGVEKTMKEADAVIALAPVFNDYSTTGWTDIPDPKKLVLAEPRSVVVNGIRFPSVHLKDYLTRLAQKVSKKTGALDFFKSLNAGELKKAAPADPSAPLVNAEIARQVEALLTPNTTVIAETGDSWFNAQRMKLPNGARVEYEMQWGHIGWSVPAAFGYAVGAPERRNILMVGDGSFQLTAQEVAQMVRLKLPVIIFLINNYGYTIEVMIHDGPYNNIKNWDYAGLMEVFNGNGGYDSGAGKGLKAKTGGELAEAIKVALANTDGPTLIECFIGREDCTEELVKWGKRVAAANSRKPVNKLL
# notes: hexa-His (N); made in house; host or cells: E. coli BL21 (DE3) star
# B7: Zymomonas mobilis pyruvate decarboxylase Zm-Pdc variant G413N, SEQ ID No. 194 (Zymomonas mobilis subsp. mobilis ZM4 = ATCC 31821; G413N) (protein)
# chain: B6 chain with G413N
# B8: Zymomonas mobilis pyruvate decarboxylase Zm-Pdc variant W392L, SEQ ID No. 192 (Zymomonas mobilis subsp. mobilis ZM4 = ATCC 31821; W392L) (protein)
# chain: B6 chain with W392L
# Tests used:
# [1] = substrate: C[C@H](O)C(=O)O; assay: purified protein, by the assay type; format: biochemical, Escherichia coli; details: other: 37° C., pH 7, DCIP reduction
# Method: (§1) Activity of the membrane-associated DHB dehydrogenase (Ec-LldD) was assayed by following the DHB-dependent reduction of 2,6-dichloroindophenol (DCIP). (L)-2,4-dihydroxybutyrate+DCIPox→2-oxo-4-hydroxybutyrate+DCIPred Reaction scheme 2:
# (§2) Reactions were started by adding 20 mM (L)-2,4-dihydroxybutyrate (Rhodia).
# (§3) Site-directed mutagenesis of the E. coli lldD gene was carried out using the oligonucleotide pairs listed in Table 5 and the pET28-Ec-lldD plasmid as the template.
# [2] = substrate: O=C(O)[C@@H](O)CCO; assay: purified protein, by the assay type; format: biochemical, Escherichia coli; details: other: 37° C., pH 7, 0.06 mM DCIP
# Method: as §1, §2, §3
# [3] = substrate: CC(C)CC(=O)C(=O)O; assay: OHB decarboxylase / branched-chain alpha-ketoacid decarboxylase kinetics, Ll-KdcA wild type; format: biochemical, Lactococcus lactis B1157-NIZO; details: other: 37° C., pH 7, coupled to horse liver alcohol dehydrogenase/NADH
# Description: (§4) The branched-chain alpha-ketoacid decarboxylase encoding gene Ll-kdcA from L. lactis B1157-NIZO was codon-optimized for expression in E. coli. […] The resulting pET28-Ll-kdcA plasmid was shown by DNA sequencing to have the correct sequence.
# (§5) The plasmids were used to transform E. coli BL21 (DE3) star cells and the enzymes carrying an N-terminal hexa-His tag were expressed and purified as described in Example 1. Decarboxylase activity on 2-oxo-4-hydroxybutyrate (OHB), pyruvate (Sigma), and 4-methyl-2-oxovaleric acid (Sigma) was quantified.
# (§6) OHB decarboxylase activity was assayed by coupling the decarboxylase activity to the NADPH-dependent reduction of the released 3-hydroxypropanal by purified aldehyde reductase, YqhD, from E. coli. The decarboxylation of pyruvate was coupled to the NADH-dependent reduction of acetaldehyde catalysed by yeast alcohol dehydrogenase. Branched-chain alpha-ketoacid decarboxylase activity was measured on 4-methyl-2-oxovaleric acid by coupling to the NADH-dependent reduction of 3-methylbutanal catalysed by horse liver alcohol dehydrogenase. […] Reactions were started by adding 20 mM 2-oxo-4-hydroxybutyrate (OHB), 10 mM 4-methyl-2-oxovaleric acid (MOV), or 5 mM pyruvate.
# [4] = substrate: O=C(O)C(=O)CCO; assay: as above; format: biochemical, Lactococcus lactis B1157-NIZO; details: other: 37° C., pH 7, coupled to E. coli YqhD/NADPH
# Description: as §4, §5, §6
# [5] = substrate: CC(C)CC(=O)C(=O)O; assay: OHB decarboxylase / MOV decarboxylase kinetics, Ll-KdcA V461I; format: biochemical, Lactococcus lactis; details: other: 37° C., pH 7, coupled to horse liver alcohol dehydrogenase/NADH
# Method: as §6
# (§7) Site-directed mutagenesis of the L. lactis kdcA and the Z. mobilis Pdc genes was carried out using the oligonucleotide pairs listed in Table 9 and the pET28-Ll-kdcA and pET28-Zm-Pdc plasmids, respectively, as the template.
# (§8) Mutant enzymes were expressed, purified and tested for OHB decarboxylase, pyruvate decarboxylase and MOV decarboxylase activity as described in Example 4.
# [6] = substrate: O=C(O)C(=O)CCO; assay: as above; format: biochemical, Lactococcus lactis; details: other: 37° C., pH 7, coupled to E. coli YqhD/NADPH
# Method: as §6, §7, §8
# [7] = substrate: CC(C)CC(=O)C(=O)O; assay: OHB decarboxylase / MOV decarboxylase kinetics, Ll-KdcA G402S; format: biochemical, Lactococcus lactis; details: other: 37° C., pH 7, coupled to horse liver alcohol dehydrogenase/NADH
# Method: as §6, §7, §8
# [8] = substrate: O=C(O)C(=O)CCO; assay: as above; format: biochemical, Lactococcus lactis; details: other: 37° C., pH 7, coupled to E. coli YqhD/NADPH
# Method: as §6, §7, §8
# [9] = substrate: O=C(O)C[C@H](O)C(=O)O; assay: cells, lysate or membranes named; format: biochemical, Bacillus subtilis; details: other: 37° C., pH 8, NAD
# Method: (§9) Site-directed mutagenesis of the E. coli mdh and the B. subtilis mdh genes were carried out using the oligonucleotide pairs listed in Table 3 and the pET28-Ec-mdh and the pET28-Bs-mdh plasmids as the templates. Point mutations to change the amino acid sequence were introduced by PCR (Phusion 1U, HF buffer 20% (v/v), dNTPs 0.2 mM, direct and reverse primers 0.04 μM each, template plasmid 50 ng, water) using the oligonucleotide pairs listed in Table 3. Mutated genes contained a new restriction site listed in Table 3 (introduced using silent mutations) in addition to the functional mutation to facilitate identification of mutated clones. The PCR products were digested by DpnI at 37° C. for 1 h to remove template DNA, and transformed into competent E. coli DH5-alpha cells (NEB). The mutated plasmids were identified by restriction site analysis and verified to carry the desired mutations by DNA sequencing.
# (§10) Mutant enzymes were expressed, purified and tested for DHB dehydrogenase activity as described in Example 1.
# [10] = substrate: O=C(O)[C@@H](O)CCO; assay: cells, lysate or membranes named; format: biochemical, Bacillus subtilis; details: other: 37° C., pH 8, 10 mM NAD
# Method: as §9, §10
# [11] = substrate: CC(=O)C(=O)O; assay: OHB decarboxylase / pyruvate decarboxylase kinetics, Zm-Pdc wild type; format: biochemical, Zymomonas mobilis; details: other: 37° C., pH 7, coupled to yeast alcohol dehydrogenase/NADH
# Description: (§11) Genomic DNAs of S. cerevisiae BY4741, and Z. mobilis (Lindner) Kluyver and van Niel (ATCC® 31821) were used as the template. […] Ligation products were transformed into competent E. coli DH5α cells (NEB). […] The corresponding protein sequences are represented by SEQ No. 208 and SEQ ID No. 208 128 respectively.
# as §5, §6
# [12] = substrate: O=C(O)C(=O)CCO; assay: as above; format: biochemical, Zymomonas mobilis; details: other: 37° C., pH 7, coupled to E. coli YqhD/NADPH
# Description: as §11, §5, §6
# [13] = substrate: O=C(O)C(=O)CCO; assay: OHB decarboxylase / pyruvate decarboxylase kinetics, Zm-Pdc G413N; format: biochemical, Zymomonas mobilis; details: other: 37° C., pH 7, coupled to E. coli YqhD/NADPH
# Method: as §6, §7, §8
# [14] = substrate: O=C(O)C(=O)CCO; assay: OHB decarboxylase / pyruvate decarboxylase kinetics, Zm-Pdc W392L; format: biochemical, Zymomonas mobilis; details: other: 37° C., pH 7, coupled to E. coli YqhD/NADPH
# Method: as §6, §7, §8
protein,measurement,setting,value
B1,Km,[1],420 µM
same,Km,[2],850 µM
B2,Km,[3],150 µM
same,Km,[4],4000 µM
B3,Km,[5],150 µM
same,Km,[6],2800 µM
B4,Km,[7],1500 µM
same,Km,[8],1500 µM
B5,Km,[9],6800 µM
same,Km,[10],5400 µM
B6,Km,[11],2500 µM
same,Km,[12],1500 µM
B7,Km,[13],1400 µM
B8,Km,[14],3700 µM
